Molecular target: the molecule itself
Assay: SEC; Superdex 200 Increase 10/300 GL, 25 mM HEPES pH 7.5, 100 mM NaCl, 0.03% DDM; elution volume compared with the trimeric molecular weight

B1: MdtF, multidrug efflux HAE-RND transporter from Escherichia coli (natural protein)
chain: MANYFIDRPVFAWVLAIIMMLAGGLAIMNLPVAQYPQIAPPTITVSATYPGADAQTVEDSVTQVIEQNMNGLDGLMYMSSTSDAAGNASITLTFETGTSPDIAQVQVQNKLQLAMPSLPEAVQQQGISVDKSSSNILMVAAFISDNGSLNQYDIADYVASNIKDPLSRTAGVGSVQLFGSEYAMRIWLDPQKLNKYNLVPSDVISQIKVQNNQISGGQLGGMPQAADQQLNASIIVQTRLQTPEEFGKILLKVQQDGSQVLLRDVARVELGAEDYSTVARYNGKPAAGIAIKLAAGANALDTSRAVKEELNRLSAYFPASLKTVYPYDTTPFIEISIQEVFKTLVEAIILVFLVMYLFLQNFRATIIPTIAVPVVILGTFAILSAVGFTINTLTMFGMVLAIGLLVDDAIVVVENVERVIAEDKLPPKEATHKSMGQIQRALVGIAVVLSAVFMPMAFMSGATGEIYRQFSITLISSMLLSVFVAMSLTPALCATILKAAPEGGHKPNALFARFNTLFEKSTQHYTDSTRSLLRCTGRYMVVYLLICAGMAVLFLRTPTSFLPEEDQGVFMTTAQLPSGATMVNTTKVLQQVTDYYLTKEKDNVQSVFTVGGFGFSGQGQNNGLAFISLKPWSERVGEENSVTAIIQRAMIALSSINKAVVFPFNLPAVAELGTASGFDMELLDNGNLGHEKLTQARNELLSLAAQSPNQVTGVRPNGLEDTPMFKVNVNAAKAEAMGVALSDINQTISTAFGSSYVNDFLNQGRVKKVYVQAGTPFRMLPDNINQWYVRNASGTMAPLSAYSSTEWTYGSPRLERYNGIPSMEILGEAAAGKSTGDAMKFMADLVAKLPAGVGYSWTGLSYQEALSSNQAPALYAISLVVVFLALAALYESWSIPFSVMLVVPLGVVGALLATDLRGLSNDVYFQVGLLTTIGLSAKNAILIVEFAVEMMQKEGKTPIEAIIEAARMRLRPILMTSLAFILGVLPLVISHGAGSGAQNAVGTGVMGGMFAATVLAIYFVPVFFVVVEHLFARFKKA
notes: MdtF, RND inner membrane transporter of the MdtEF system, Escherichia coli; gene PCR amplified from E. coli genomic DNA, cloned into pET21a(+) between NdeI and XhoI; wild type; the whole gene appears to have been cloned. ~110 kDa band on SDS-PAGE; source: E. coli BL21ΔacrB acrD mdtABC (NKE1317), purified (2% DDM extraction, Ni-NTA, SEC in 0.03% DDM)
- stoichiometry N: 3

B2: MdtB, multidrug efflux HAE-RND transporter from Escherichia coli (natural protein)
chain: MQVLPPSSTGGPSRLFIMRPVATTLLMVAILLAGIIGYRALPVSALPEVDYPTIQVVTLYPGASPDVMTSAVTAPLERQFGQMSGLKQMSSQSSGGASVITLQFQLTLPLDVAEQEVQAAINAATNLLPSDLPNPPVYSKVNPADPPIMTLAVTSTAMPMTQVEDMVETRVAQKISQISGVGLVTLSGGQRPAVRVKLNAQAIAALGLTSETVRTAITGANVNSAKGSLDGPSRAVTLSANDQMQSAEEYRQLIIAYQNGAPIRLGDVATVEQGAENSWLGAWANKEQAIVMNVQRQPGANIISTADSIRQMLPQLTESLPKSVKVTVLSDRTTNIRASVDDTQFELMMAIALVVMIIYLFLRNIPATIIPGVAVPLSLIGTFAVMVFLDFSINNLTLMALTIATGFVVDDAIVVIENISRYIEKGEKPLAAALKGAGEIGFTIISLTFSLIAVLIPLLFMGDIVGRLFREFAITLAVAILISAVVSLTLTPMMCARMLSQESLRKQNRFSRASEKMFDRIIAAYGRGLAKVLNHPWLTLSVALSTLLLSVLLWVFIPKGFFPVQDNGIIQGTLQAPQSSSFANMAQRQRQVADVILQDPAVQSLTSFVGVDGTNPSLNSARLQINLKPLDERDDRVQKVIARLQTAVDKVPGVDLFLQPTQDLTIDTQVSRTQYQFTLQATSLDALSTWVPQLMEKLQQLPQLSDVSSDWQDKGLVAYVNVDRDSASRLGISMADVDNALYNAFGQRLISTIYTQANQYRVVLEHNTENTPGLAALDTIRLTSSDGGVVPLSSIAKIEQRFAPLSINHLDQFPVTTISFNVPDNYSLGDAVQAIMDTEKTLNLPVDITTQFQGSTLAFQSALGSTVWLIVAAVVAMYIVLGILYESFIHPITILSTLPTAGVGALLALLIAGSELDVIAIIGIILLIGIVKKNAIMMIDFALAAEREQGMSPREAIYQACLLRFRPILMTTLAALLGALPLMLSTGVGAELRRPLGIGMVGGLIVSQVLTLFTTPVIYLLFDRLALWTKSRFARHEEEA
notes: MdtB, RND inner membrane transporter of the MdtABC system, Escherichia coli; gene PCR amplified from E. coli genomic DNA, cloned into pET21a(+) between NdeI and XhoI; wild type; the whole gene appears to have been cloned. ~110 kDa band on SDS-PAGE; also called homotrimeric MdtB; source: E. coli BL21ΔacrB acrD mdtABC (NKE1317), purified (2% DDM extraction, Ni-NTA, SEC in 0.03% DDM); for cryo-EM …
- stoichiometry N: 3

— publication PMC12802153, “Cryo-EM reveals the structural heterogeneity and conformational flexibility of multidrug efflux pumps MdtB and MdtF” (mBio, 2025)
